# The FLAb antibody collection (doi:10.7554/elife.23156)
# B1: scFv; the commonest letter at each place (parent)
# chain 1: EVKLDETGGGLVQPGRPMKLSCVASGFTFSDYWMNWVRQSPEKGLEWVAQIRNKPYNYETYYSDSVKGRFTISRDDSKSSVYLQMNNLRVEDMGIYYCTGSYYGMDYWGQGTSVTVS
# chain 2: DVVMTQTPLSLPVSLGDQASISCRSSQSLVHSNGNTYLRWYLQKPGQSPKVLIYKVSNRFSGVPDRFSGSGSGTDFTLKISRVEAEDLGVYFCSQSTHVPWTFGGGTKLEIK
# Columns and labels:
# fluorescein = variants of: B1; test: Kd (Tite-Seq); conditions: with fluorescein; format: scFv 4-4-20, heavy + light
# [1] = variants of: B1; test: yeast surface expression (ratio to wild type); higher = more expressed; conditions: format: scFv 4-4-20, heavy + light
Kd (fluorescein) [µM],Variant,yeast surface expression [1]
≥ 10,chain 1 EVKLDETGGGLVQPGRPMKLSCVASGFTFSDYWMNWVRQSPEKGLEWVAQIRNKPYNYETYYSDSVKGRFTISRDDSKSSVYLQMNNLRVEDMGIYYCTRSYYVSDYWGQGTSVTVS chain 2 DVVMTQTPLSLPVSLGDQASISCRSSQSLVHSNGNTYLRWYLQKPGQSPKVLIYKVSNRFSGVPDRFSGSGSGTDFTLKISRVEAEDLGVYFCSQSTHVPWTFGGGTKLEIK [chain 1 G100R G104V M105S],0.211
0.000504,chain 1 EVKLDETGGGLVQPGRPMKLSCVASGFTFSDYWMNWVRQSPEKGLEWVAQIRNKPYNYETYYSDSVKGRFTISRDDSKSSVYLQMNNLRVEDMGIYYCTGSVYGMDYYGQGTSVTVS chain 2 DVVMTQTPLSLPVSLGDQASISCRSSQSLVHSNGNTYLRWYLQKPGQSPKVLIYKVSNRFSGVPDRFSGSGSGTDFTLKISRVEAEDLGVYFCSQSTHVPWTFGGGTKLEIK [chain 1 Y102V W108Y],0.855
0.47,chain 1 EVKLDETGGGLVQPGRPMKLSCVASGFTFSNYWMNWHRQSPEKGLEWVAQIRNKPYNYETYYSDSVKGRFTISRDDSKSSVYLQMNNLRVEDMGIYYCTGSYYGMDYWGQGTSVTVS chain 2 DVVMTQTPLSLPVSLGDQASISCRSSQSLVHSNGNTYLRWYLQKPGQSPKVLIYKVSNRFSGVPDRFSGSGSGTDFTLKISRVEAEDLGVYFCSQSTHVPWTFGGGTKLEIK [chain 1 D31N V37H],0.626
≥ 10,chain 1 EVKLDETGGGLVQPGRPMKLSCVASGFTLSDYWMNWPRQSPEKGLEWVAQIRNKPYNYETYYSDSVKGRFTISRDDSKSSVYLQMNNLRVEDMGIYYCTGSYYGMDYWGQGTSVTVS chain 2 DVVMTQTPLSLPVSLGDQASISCRSSQSLVHSNGNTYLRWYLQKPGQSPKVLIYKVSNRFSGVPDRFSGSGSGTDFTLKISRVEAEDLGVYFCSQSTHVPWTFGGGTKLEIK [chain 1 F29L V37P],0.419

# Second part, the variant before the results:
Variant,Kd (fluorescein) [µM],yeast surface expression [1]
chain 1 EVKLDETGGGLVQPGRPMKLSCVASGFTFSDYWMNWVRQSPEKGLEWVAQIRNKPYNYETYYSDSVKGRFTISRDDSKSSVYLQMNNLRVEDMGIYYCTGSMTGMDYWGQGTSVTVS chain 2 DVVMTQTPLSLPVSLGDQASISCRSSQSLVHSNGNTYLRWYLQKPGQSPKVLIYKVSNRFSGVPDRFSGSGSGTDFTLKISRVEAEDLGVYFCSQSTHVPWTFGGGTKLEIK [chain 1 Y102M Y103T],≥ 10,0.766
chain 1 EVKLDETGGGLVQPGRPMKLSCVASGFTFSDYWMNWVRQSPEKGLEWVAQIRNKPYNYETYYSDSVKGRFTISRDDSKSSVYLQMNNLRVEDMGIYYCTSSCYGMDYWGQGTSVTVS chain 2 DVVMTQTPLSLPVSLGDQASISCRSSQSLVHSNGNTYLRWYLQKPGQSPKVLIYKVSNRFSGVPDRFSGSGSGTDFTLKISRVEAEDLGVYFCSQSTHVPWTFGGGTKLEIK [chain 1 G100S Y102C],≥ 10,0.675
chain 1 EVKLDETGGGLVQPGRPMKLSCVASGFTFSDYWMNWVRQSPEKGLEWVAQIRNKPYNYETYYSDSVKGRFTISRDDSKSSVYLQMNNLRVEDMGIYYCTGSYYGMLYCGQGTSVTVS chain 2 DVVMTQTPLSLPVSLGDQASISCRSSQSLVHSNGNTYLRWYLQKPGQSPKVLIYKVSNRFSGVPDRFSGSGSGTDFTLKISRVEAEDLGVYFCSQSTHVPWTFGGGTKLEIK [chain 1 D106L W108C],≥ 10,0.234
chain 1 EVKLDETGGGLVQPGRPMKLSCVASGFTFSDYWINKVRQSPEKGLEWVAQIRNKPYNYETYYSDSVKGRFTISRDDSKSSVYLQMNNLRVEDMGIYYCTGSYYGMDYWGQGTSVTVS chain 2 DVVMTQTPLSLPVSLGDQASISCRSSQSLVHSNGNTYLRWYLQKPGQSPKVLIYKVSNRFSGVPDRFSGSGSGTDFTLKISRVEAEDLGVYFCSQSTHVPWTFGGGTKLEIK [chain 1 M34I W36K],≥ 10,0.24
chain 1 EVKLDETGGGLVQPGRPMKLSCVASGFTKSDYWFNWVRQSPEKGLEWVAQIRNKPYNYETYYSDSVKGRFTISRDDSKSSVYLQMNNLRVEDMGIYYCTGSYYGMDYWGQGTSVTVS chain 2 DVVMTQTPLSLPVSLGDQASISCRSSQSLVHSNGNTYLRWYLQKPGQSPKVLIYKVSNRFSGVPDRFSGSGSGTDFTLKISRVEAEDLGVYFCSQSTHVPWTFGGGTKLEIK [chain 1 F29K M34F],0.0233,0.631
chain 1 EVKLDETGGGLVQPGRPMKLSCVASGFTFSDYWMNWVRQSPEKGLEWVAQIRNKPYNYETYYSDSVKGRFTISRDDSKSSVYLQMNNLRVEDMGIYYCTGSYYGMWGWLQGTSVTVS chain 2 DVVMTQTPLSLPVSLGDQASISCRSSQSLVHSNGNTYLRWYLQKPGQSPKVLIYKVSNRFSGVPDRFSGSGSGTDFTLKISRVEAEDLGVYFCSQSTHVPWTFGGGTKLEIK [chain 1 D106W Y107G G109L],≥ 10,0.109
chain 1 EVKLDETGGGLVQPGRPMKLSCVASGFTFSDYWMNWDRQSPEKGLEWVAQIRNKPYNYETYYSDSVKGRFTISRDDSKSSVYLQMNNLRVEDMGIYYCTGSYYGMDYWGQGTSVTVS chain 2 DVVMTQTPLSLPVSLGDQASISCRSSQSLVHSNGNTYLRWYLQKPGQSPKVLIYKVSNRFSGVPDRFSGSGSGTDFTLKISRVEAEDLGVYFCSQSTHVPWTFGGGTKLEIK [chain 1 V37D],0.00122,1.05
chain 1 EVKLDETGGGLVQPGRPMKLSCVASGFTGNDYWMNWVRQSPEKGLEWVAQIRNKPYNYETYYSDSVKGRFTISRDDSKSSVYLQMNNLRVEDMGIYYCTGSYYGMDYWGQGTSVTVS chain 2 DVVMTQTPLSLPVSLGDQASISCRSSQSLVHSNGNTYLRWYLQKPGQSPKVLIYKVSNRFSGVPDRFSGSGSGTDFTLKISRVEAEDLGVYFCSQSTHVPWTFGGGTKLEIK [chain 1 F29G S30N],≥ 10,0.933
